Data from patent US11634470B2, “Integrin binding peptides and uses thereof” (Universiteit Twente, priority 2015, dated 2023).
Primed or numbered codes have the meaning given here. Where no end group is shown, it is not given here. PEG(6) = PEG(6) linker

Legend:
[1] = system: human skin fibroblasts BJhtert; experiment: Scratch (wound) migration of human skin fibroblasts; type: cell-based; conditions: after 24 hours
Procedure: FIG. 15: Effect of peptides on migration of human fibroblasts. Human skin fibroblasts BJhtert were grown to full confluency and a scratch (wound) was made and effects of peptides were determined on the wound closure (migration of fibroblasts) after 24 hours. […] (1. SEQ ID NO:8, 2. SEQ ID NO: 11, 3. SEQ ID NO:62, 4. SEQ ID NO:63, 5. SEQ ID NO: 64, 6. SEQ ID NO:76, and 7. SEQ ID NO:68.)

[2] = system: primary human pancreatic stellate cells; experiment: AXI-I-PEG-FITC binding assay, flow cytometry; type: cell-based; design: unit not given here; conditions: suspended PSCs, 1 hour at 4° C.
Procedure: PSCs were trypsinized using trypsin-EDTA solution and cell numbers were diluted to 4×10^4 cells/ml. Cells were incubated at 37° C. for 30 minutes to allow receptor recovery. Then different concentrations of AXI-I-FITC was added to the cells containing 2% FBS and incubated at 4° C. for 60 minutes. Thereafter, cells were centrifuged at 1500 rpm at 4° C. for 10 minutes. Supernatant was removed and cells were washed 3 times with PBS and then were fixed with 0.5% formaldehyde for 1 hour at 4° C. and measured with flow cytometry for fluorescence.

α5β1 [3] = target: T1, α5β1 (Homo sapiens, UniProt P08648); experiment: Binding of FITC-labeled peptide to coated control receptor α5β1; conditions: similar to empty wells
Procedure: (§1) Purified ITGA11 receptor (α11β1; 100 μg/ml—stock; R&D systems) was diluted to 5 μg/ml with 1×PBS. 96-well ELISA White Maxisorb plate (Nunc) was coated with 50 μl of 5 μg/ml ITGA11 (or as control α5β1) receptor for overnight at 4° C. Then, wells were blocked for 3-4 hours with 200 μl of blocking buffer (1×PBS containing 5% BSA). Wells were washed three times with 200 μl of washing buffer (1×PBS containing 0.5% BSA and 0.05% TWEEN®-20). Peptides conjugated with FITC were diluted to different concentrations in washing buffer and then added to the plate and incubated at 37° C. for 1 hour. In addition, the binding of the peptide was blocked by co-incubation with 10× higher amount of unlabeled peptide. Subsequently, wells were washed three times with washing buffer. Then, 100 μl of 1×PBS was added and plates were read at 485 nm/520 nm with a fluorescence plate reader.

ITGA11 receptor (α11β1) = target: T2, ITGA11 receptor (α11β1) (Homo sapiens, UniProt Q9UKX5); experiment: Binding of FITC-labeled peptides to coated ITGA11 receptor; conditions: FITC-labeled peptide, 37° C. 1 hour
T2 construct: purchased R&D systems
Procedure: as §1

α5β1 [4] = target: T1, α5β1; experiment: ITGA5 peptide selection, overlapping fibronectin peptides displayed on membrane; type: binding; design: purchased R&D systems; conditions: peptides attached by C-terminal on membrane, 5 μg/ml α5β1
Procedure: Peptides were attached to their c-terminal site using stable linker. […] The peptide-displaying […] membrane was soaked in methanol for 1 minute and rinsed in Tris-buffered saline (TBS) and washed 3 times. Then, the membrane was blocked with 3% BSA in 0.05% TWEEN®-20 containing TBS (TBST) for 3 hours at room temperature. Then, the membrane was washed for 10 minutes with TBST and incubated with 5 μg/ml α5β1 human recombinant protein (R&D systems) in 3% BSA in TBST for 1 hour at room temperature and then overnight at 4° C. Subsequently, the membrane was washed 3 times with TBST. Thereafter, the bound receptor to the membrane was transferred to the PVDF membrane. To achieve this, first, the PVDF membrane was soaked in methanol for 1 minute and then blocked with 5% skimmed fat milk for 2 hours. Then, the membrane was incubated with primary anti-alpha5 integrin antibody (Sigma-Aldrich) for overnight in 5% skimmed milk. The membrane was washed 3 times with TBST and then incubated with anti-rabbit-HRP secondary antibody (Dako), washed and developed with chemiluminescence detection kit.

α11β1 receptor = α11β1 receptor (Homo sapiens, UniProt Q9UKX5); experiment: Peptide microarray binding, alanine scanning and chain length scan of AXI-I; conditions: receptor 10 μg/ml
Procedure: Peptide microarray was prepared by conjugating peptides at their N-terminal to a glass slide using a PEG linker. […] For the binding studies, the peptide array was blocked with 3% BSA in TBST for 2 hours. Then the array slide was washed 5 times in TBST and subsequently incubated with the target receptor (α11β1, 10 μg/ml dissolved in PBS) for 1 hour at 37° C. The slides were washed with TBST and then incubated with primary antibody (1 μg/ml) against ITGA11 for 1 hour at 37° C. Then slides were washed and incubated with fluorescent dye labeled secondary antibodies for 30 minutes. The slides were washed with TBST and water and then dried and scanned with a microarray scanner to detect binding of the peptides. The enlightened spots were analyzed using ImageJ software. To determine the unspecific binding, a peptide array was incubated with only primary and secondary antibodies without the receptor incubation step. Then, the signal of unspecific binding was subtracted from the total binding to calculate specific binding.

[5] = system: human primary pancreatic stellate cells (PSCs); experiment: TGF-β1 activation of pancreatic stellate cells; type: cell-based; conditions: TGFβ1-activated PSCs, immunostaining, 20 μM
Procedure: Human primary pancreatic stellate cells (PSCs) were obtained from ScienCell (Carlsbad, Calif.) and were cultured in specified medium provided by the manufacturer, supplemented with penicillin/streptomycin. Cells were used less than the passage 9 and seeded on a Poly-L-Lysine-coated plate.
PSCs were seeded into a 12-well plate (6×10^4 cells/well, for gene expression) or 24-well plate (for staining) in complete medium. After 24 hours, cells were starved in serum-free medium and then after 24 hours, they were added with TGF-β1 (5 ng/ml) with/without the peptide.
After 24 hours of incubation, cells were lysed with the lysis buffer and total RNA was isolated using the GenElute™ Mammalian Total RNA Miniprep Kit. The RNA amount was measured by a NanoDrop® ND-1000 Spectrophotometer (Wilmington, Del.). Subsequently, cDNA was synthesized with iScript™ cDNA Synthesis Kit (BioRad, Veenendaal, The Netherlands). 10 ng cDNA was used for each PCR reaction. The real-time qPCR primers for human αSMA and RPS18 were purchased from Sigma (The Netherlands). Gene expression levels were normalized to the expression of the house-keeping gene RPS18s.
For immunostaining, the cells were washed and fixed with acetone-methanol and processed for immunocytochemical staining.
For immunocytostaining, cells were fixed with acetone-methanol (1:1) at −20° C. for 30 minutes and then dried and rehydrated for 10 minutes. […]

[6] = system: LX2 hepatic stellate cells; experiment: Cell binding experiment, fluorescence microscopy; type: cell-based, human; conditions: FITC-labeled peptides 20 μM, 2 hours, room temperature
Procedure: Human hepatic stellate cells (LX2, 15,000 cells/well) were cultured overnight in permanox Lab-Tek 8-well chamber slides (Nunc). After overnight incubation, cells were washed 3× with 0.5% BSA containing medium and then FITC-labeled peptides (20 μM) was added and incubated at room temperature for 2 hours with intermittent shaking. The cells were then washed 3× with 0.5% BSA containing medium and 2×PBS. Thereafter, cells were fixed with 4% paraformaldehyde (prepared in 1×PBS) for 20 minutes followed by 3 times washing with 1×PBS. Cells were then mounted with mounting medium with DAPI (vector labs) and visualized under the fluorescence microscope (Nikon E600). For phalloidin staining, cells after fixation were incubated with TRITC-conjugated Phalloidin (1:1000 prepared in 1×PBS containing 0.1% TRITON-X® 100) for 10 minutes. Then, cells were washed thrice with PBS and mounted with DAPI-containing mounting medium.

α5β1 [7] = target: T1, α5β1; experiment: Peptide binding study on the coated receptor; conditions: for binding to the coated α5β1 receptor: PEG(6)-Fluorescein labeled peptide
Procedure: The purified human recombinant α5β1 or α11β1 receptors (5 μg/ml in PBS) were coated onto 96-well ELISA plates (White Maxisorb-Nunc) by incubating overnight at 4° C. Then, the wells were blocked with blocking buffer (5% (w/v) BSA, 150 mM Nacl, 25 mM Tris) for 2 hours at room temperature. Then, the wells were washed three times with 200 μl of washing buffer (150 mM Nacl, 25 mM Tris-base, 0.005% TWEEN® 20, 0.5% BSA). Thereafter, the peptides conjugated with PEG(6)-FITC were diluted to different concentrations in washing buffer. For the competitive studies, the wells were co-incubated with 10-fold higher amount of unlabeled peptides. The plates were incubated at 37° C. for 60 minutes. Then, the wells were washed three times with washing buffer and subsequently, the plates were read for the fluorescein signal Ex/Em 485 nm/520 nm using a fluorescent plate reader (Perkin Elmer).

T1 sequence (P08648 42-894 limits assumed): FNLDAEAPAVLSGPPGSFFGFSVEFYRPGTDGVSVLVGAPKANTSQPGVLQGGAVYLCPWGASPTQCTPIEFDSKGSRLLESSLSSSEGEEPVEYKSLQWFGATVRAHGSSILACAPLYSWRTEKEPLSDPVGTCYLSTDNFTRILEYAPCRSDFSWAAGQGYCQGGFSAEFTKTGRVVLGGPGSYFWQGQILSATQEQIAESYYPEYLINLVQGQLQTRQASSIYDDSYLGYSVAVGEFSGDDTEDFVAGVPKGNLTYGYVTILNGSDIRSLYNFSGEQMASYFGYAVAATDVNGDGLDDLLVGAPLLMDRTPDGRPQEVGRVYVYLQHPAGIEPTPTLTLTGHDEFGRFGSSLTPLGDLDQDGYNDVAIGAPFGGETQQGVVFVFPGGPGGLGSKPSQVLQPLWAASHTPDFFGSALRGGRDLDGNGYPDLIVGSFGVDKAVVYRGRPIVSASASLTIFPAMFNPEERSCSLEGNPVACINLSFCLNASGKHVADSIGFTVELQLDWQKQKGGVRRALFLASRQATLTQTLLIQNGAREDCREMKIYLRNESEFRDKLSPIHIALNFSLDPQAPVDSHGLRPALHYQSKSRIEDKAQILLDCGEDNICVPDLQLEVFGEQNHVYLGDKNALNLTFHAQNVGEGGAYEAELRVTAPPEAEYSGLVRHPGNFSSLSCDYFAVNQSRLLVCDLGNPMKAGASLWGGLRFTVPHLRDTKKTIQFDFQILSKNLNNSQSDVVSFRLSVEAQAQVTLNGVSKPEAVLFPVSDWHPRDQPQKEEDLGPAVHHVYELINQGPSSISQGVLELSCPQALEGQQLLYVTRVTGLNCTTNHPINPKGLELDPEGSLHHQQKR
T1 sequence (P08648 895-995 limits assumed): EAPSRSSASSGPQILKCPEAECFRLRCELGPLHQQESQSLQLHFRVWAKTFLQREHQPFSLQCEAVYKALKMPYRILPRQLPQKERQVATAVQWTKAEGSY
T1 sequence (P05556 21-728 partner limits assumed): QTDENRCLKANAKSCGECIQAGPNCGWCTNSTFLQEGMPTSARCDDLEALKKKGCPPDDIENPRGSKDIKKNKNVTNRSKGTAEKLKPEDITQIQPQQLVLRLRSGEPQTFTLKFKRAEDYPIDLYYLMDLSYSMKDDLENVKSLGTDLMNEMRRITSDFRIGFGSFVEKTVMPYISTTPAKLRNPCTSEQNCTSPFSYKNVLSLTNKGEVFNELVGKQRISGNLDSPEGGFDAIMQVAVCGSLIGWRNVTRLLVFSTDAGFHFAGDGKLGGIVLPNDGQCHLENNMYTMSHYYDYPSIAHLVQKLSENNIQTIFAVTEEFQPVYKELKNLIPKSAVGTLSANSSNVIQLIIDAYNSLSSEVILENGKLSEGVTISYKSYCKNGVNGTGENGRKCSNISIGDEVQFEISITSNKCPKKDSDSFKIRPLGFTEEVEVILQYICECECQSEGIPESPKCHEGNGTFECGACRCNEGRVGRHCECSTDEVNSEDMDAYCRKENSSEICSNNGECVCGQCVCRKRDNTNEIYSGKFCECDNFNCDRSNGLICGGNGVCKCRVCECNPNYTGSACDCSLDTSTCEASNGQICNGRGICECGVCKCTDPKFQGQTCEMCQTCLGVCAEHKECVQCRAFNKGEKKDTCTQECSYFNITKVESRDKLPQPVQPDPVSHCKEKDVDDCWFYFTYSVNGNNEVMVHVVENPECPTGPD
α11β1 receptor, sequence (Q9UKX5 23-1141 limits assumed): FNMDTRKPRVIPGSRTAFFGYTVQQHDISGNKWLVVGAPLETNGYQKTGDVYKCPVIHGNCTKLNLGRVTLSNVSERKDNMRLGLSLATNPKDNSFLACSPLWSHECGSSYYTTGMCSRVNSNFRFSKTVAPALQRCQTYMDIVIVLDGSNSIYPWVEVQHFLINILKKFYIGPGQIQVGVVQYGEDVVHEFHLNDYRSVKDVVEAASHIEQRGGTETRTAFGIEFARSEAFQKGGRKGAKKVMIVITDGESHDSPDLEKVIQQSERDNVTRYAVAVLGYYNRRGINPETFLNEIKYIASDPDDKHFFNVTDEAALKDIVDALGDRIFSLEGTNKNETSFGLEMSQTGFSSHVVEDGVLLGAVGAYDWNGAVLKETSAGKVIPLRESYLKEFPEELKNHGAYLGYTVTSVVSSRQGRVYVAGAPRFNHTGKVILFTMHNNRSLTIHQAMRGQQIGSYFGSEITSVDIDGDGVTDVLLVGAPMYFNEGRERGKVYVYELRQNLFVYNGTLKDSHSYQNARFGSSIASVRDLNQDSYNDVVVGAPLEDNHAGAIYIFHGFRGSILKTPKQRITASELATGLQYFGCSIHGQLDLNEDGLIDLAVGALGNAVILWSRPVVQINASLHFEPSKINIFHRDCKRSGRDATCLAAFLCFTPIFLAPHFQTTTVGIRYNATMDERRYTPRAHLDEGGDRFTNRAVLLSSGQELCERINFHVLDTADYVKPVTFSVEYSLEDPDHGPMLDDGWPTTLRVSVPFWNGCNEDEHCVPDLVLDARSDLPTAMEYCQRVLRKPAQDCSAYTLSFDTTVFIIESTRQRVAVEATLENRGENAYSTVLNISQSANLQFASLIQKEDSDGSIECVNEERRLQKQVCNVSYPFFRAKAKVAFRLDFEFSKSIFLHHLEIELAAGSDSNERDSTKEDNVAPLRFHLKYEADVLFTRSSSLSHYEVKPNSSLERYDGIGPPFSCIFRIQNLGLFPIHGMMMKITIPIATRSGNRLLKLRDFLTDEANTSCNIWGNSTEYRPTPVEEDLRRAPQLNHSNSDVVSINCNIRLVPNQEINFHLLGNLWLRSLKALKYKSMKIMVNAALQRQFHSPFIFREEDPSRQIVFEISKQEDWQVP
α11β1 receptor, sequence (P05556 21-728 partner limits assumed): as the sequence (P05556 21-728 partner limits assumed) above
T2 sequence (Q9UKX5 23-1141 limits assumed): as the sequence (Q9UKX5 23-1141 limits assumed) above
T2 sequence (P05556 21-728 partner limits assumed): as the sequence (P05556 21-728 partner limits assumed) above

With “AV3.3: AV3 variant of FIG. 15 Panel B; possibly third listed peptide, SEQ ID NO:62 (RAYRITY; ITGA5 binding peptide)” the reduction on migration [1] was “about 30%”.

With “AXI-I-FITC: AXI-I peptide labeled with PEG(6)-FITC (SGLTEWLRWFNS; also: labeled with PEG(6)-FITC, site not given here)” the “concentration at which binding reached plateau” value [2] was 20, the “binding to irrelevant receptor α5β1” value (α5β1 [3]) was “very low binding” and the “binding to coated ITGA11 (α11β1) receptor” value (ITGA11 receptor (α11β1)) was “bound to the ITGA11 receptor specifically”.

GDSPASSKPISI [Seq 5] was tested, and the “binding to the α5β1 receptor (signal strength)” value (from here on “binding to the α5β1 receptor”) (α5β1 [4]) was “GDSPASSKPISI-moderate”.

For ITANSFTVHWIA [Seq 1], the “binding to the α5β1 receptor” value (α5β1 [4]) was “ITANSFTVHWIA-weak”.

For LTEWLRWF (ITGA11 binding peptide), the “binding to the α11β1 receptor on peptide microarray” value (α11β1 receptor) was “strongest binding”.

For “RYYRITYC (integrin binding peptide) [AV3-cys]”, the “migration of fibroblasts (wound closure)” value [1] was “significantly inhibited the migration of fibroblasts” and the “expression of fibrotic markers α-SMA, Col-1a1 and vimentin” value [5] was “clearly inhibited the expression of these biomarkers”.

“SFATWTPNFERN (integrin binding peptide) [AXI-II]” was tested, and the “binding to LX2 hepatic stellate cells” value [6] was “bound to the stellate cells”.

SIELTNLLVRYS [Seq 6] was tested, and the “binding to the α5β1 receptor” value (α5β1 [4]) was “SIELTNLLVRYS-moderate”.

In the case of TNLLVRYSPVKN [Seq 7], the “binding to the α5β1 receptor” value (α5β1 [4]) was “TNLLVRYSPVKN-moderate”.

“TTVRYYRITYGE (integrin binding peptide) [Seq 3]” was tested, and the “binding to the α5β1 receptor” value (α5β1 [4]) was “TTVRYYRITYGE-strong”.

VALNGREESPLL [Seq 2] was tested, and the “binding to the α5β1 receptor” value (α5β1 [4]) was “VALNGREESPLL-very weak”.

For “YYRITYGETGGN (ITGA5 binding peptide) [nAV2]”, the “binding to the coated α5β1 receptor” value (α5β1 [7]) was “good binding”, the “blocking of nAV2-PEG-fluorescein binding to coated α5β1 by excess unlabeled peptide” value (α5β1 [7]; excess (10-fold) of unlabeled peptide) was “blocked” and the “binding to the α5β1 receptor” value (α5β1 [4]) was “YYRITYGETGGN-very strong”.

In the case of “YYRITYGETGGN (SEQ ID NO:56)-K-PEG(6)-Fluorescein (YYRITYGETGGNK-{PEG(6)-Fluorescein}) [nAV2-FITC]”, the “binding to LX2 hepatic stellate cells” value [6] was “clearly bound to these cells”.

In the case of “YYRITYGETGGN: YYRITYGETGGN with PEG(6)-Fluorescein introduced at the N-terminal side of the peptide (not fully specified (N-terminus))”, the “binding to the coated α5β1 receptor” value (α5β1 [7]) was “no binding was observed”.
